A short description of the data set: total protein half-life in vivo (active degradation + dilution); higher = more stable protein.
[1] abbreviates: E. coli NCM3722 delta-clpP delta-lon delta-hslV, growth: N-lim chemostat, doubling time 6 h.
[2] abbreviates: E. coli NCM3722 delta-clpP, growth: N-lim chemostat, doubling time 6 h.
The mark [3] stands for this setting: E. coli NCM3722 delta-hslV, growth: N-lim chemostat, doubling time 6 h.
The mark [4] stands for this setting: E. coli NCM3722 delta-smpB, growth: N-lim chemostat, doubling time 6 h.
Setting [5] is: wild type E. coli NCM3722, growth: C-lim chemostat, doubling time 3 h.
[6] abbreviates: wild type E. coli NCM3722, growth: C-lim chemostat, doubling time 6 h.
Setting [7] is: wild type E. coli NCM3722, growth: C-lim chemostat, doubling time 12 h.
Where [8] appears, read: wild type E. coli NCM3722, growth: N-lim chemostat, doubling time 6 h.
The mark [9] stands for this setting: wild type E. coli NCM3722, growth: P-lim chemostat, doubling time 6 h.
Setting [10] is: wild type E. coli NCM3722, growth: P-lim chemostat, doubling time 12 h.
Where [11] appears, read: E. coli NCM3722 delta-lon, growth: N-lim chemostat, doubling time 6 h.
Where [12] appears, read: wild type E. coli NCM3722, growth: N-lim chemostat, doubling time 12 h.

± gives the standard deviation of the averaged measurements.

As to “MKKAGLLFLVMIVIAVVAAGIGYWKLTGEESDTLRKIVLEECLPNQQQNQNPSPCAEVKPNAGYVVLKDLNGPLQYLLMPTYRINGTESPLLTDPSTPNFFWLAWQARDFMSKKYGQPVPDRAVSLAINSRTGRTQNHFHIHISCIRPDVRKQLDNNLANISSRWLPLPGGLRGHEYLARRVTESELVQRSPFMMLAEEVPEAREHMGRYGLAMVRQSDNSFVLLATQRNLLTLNRASAEEIQDHQCEILR”, the “total protein half-life in vivo” value is, setting by setting: under setting [1], 6.38 ± 0.31 h; under setting [2], 6.726 ± 0.048 h; under setting [3], 6.364 ± 0.022 h; under setting [4], 6.59 ± 0.21 h; under setting [5], 3.17 ± 0.07 h; under setting [6], 7.09 ± 1 h. Also, the “total protein half-life in vivo” value is 12.8 ± 0.32 h under setting [7], 6.45 ± 0.28 h under setting [8], 6.13 ± 0.2 h under setting [9] and 13.6 ± 0.51 h under setting [10].

Consider “MLGWVITCHDDRAQEILDALEKKHGALLQCRAVNFWRGLSSNMLSRMMCDALHEADSGEGVIFLTDIAGAPPYRVASLLSHKHSRCEVISGVTLPLIEQMMACRETMTSSEFRERIVELGAPEVSSLWHQQQKNPPFVLKHNLYEY”, for which the “total protein half-life in vivo” value was determined as 4.15 h under setting [1], 0.895 h under setting [6] and 0.859 h under setting [7].

Turning to “MSDYQMFEVQVSQVEPLTEQVKRFTLVATDGKPLPAFTGGSHVIVQMSDGDNQYSNAYSLLSSPHDTSCYQIAVRLEENSRGGSRFLHQQVKVGDRLTISTPNNLFALIPSARKHLFIAGGIGITPFLSHMAELQHSDVDWQLHYCSRNPESCAFRDELVQHPQAEKVHLHHSSTGTRLELARLLADIEPGTHVYTCGPEALIEAVRSEAARLDIAADTLHFEQFAIEDKTGDAFTLVLARSGKEFVVPEEMTILQVIENNKAAKVECLCREGVCGTCETAILEGEADHRDQYFSDEERASQQSMLICCSRAKGKRLVLDL”, under setting [5], the “total protein half-life in vivo” value was determined as 3.41 h.

Consider “MGTTKHSKLLILGSGPAGYTAAVYAARANLQPVLITGMEKGGQLTTTTEVENWPGDPNDLTGPLLMERMHEHATKFETEIIFDHINKVDLQNRPFRLNGDNGEYTCDALIIATGASARYLGLPSEEAFKGRGVSACATCDGFFYRNQKVAVIGGGNTAVEEALYLSNIASEVHLIHRRDGFRAEKILIKRLMDKVENGNIILHTNRTLEEVTGDQMGVTGVRLRDTQNSDNIESLDVAGLFVAIGHSPNTAIFEGQLELENGYIKVQSGIHGNATQTSIPGVFAAGDVMDHIYRQAITSAGTGCMAALDAERYLDGLADAK [P0A9P4]”, for which the “total protein half-life in vivo” value was 4.04 ± 0.12 h under setting [1]; 3.95 ± 0.56 h under setting [2]; 3.57 ± 0.13 h under setting [3]; 3.954 ± 0.035 h under setting [11]; 3.71 ± 0.12 h under setting [4]; 3.16 ± 0.09 h under setting [5]. In addition, the “total protein half-life in vivo” value is, setting by setting: under setting [6], 5.74 ± 0.6 h; under setting [7], 10.2 ± 1.8 h; under setting [8], 3.8 ± 0.19 h; under setting [12], 6.33 ± 0.39 h; under setting [9], 5.05 ± 0.65 h; under setting [10], 10.7 ± 0.32 h.

As for “MSETKNELEDLLEKAATEPAHRPAFFRTLLESTVWVPGTAAQGEAVVEDSALDLQHWEKEDGTSVIPFFTSLEALQQAVEDEQAFVVMPVRTLFEMTLGETLFLNAKLPTGKEFMPREISLLIGEEGNPLSSQEILEGGESLILSEVAEPPAQMIDSLTTLFKTIKPVKRAFICSIKENEEAQPNLLIGIEADGDIEEIIQATGSVATDTLPGDEPIDICQVKKGEKGISHFITEHIAPFYERRWGGFLRDFKQNRII [P0AFZ1]”, the “total protein half-life in vivo” value is, setting by setting: under setting [1], 3.64 h; under setting [2], 3.49 ± 0.42 h; under setting [3], 2.73 h; under setting [11], 3.96 ± 0.78 h; under setting [4], 2.39 ± 0.091 h; under setting [5], 2.44 h. For the same sequence, the “total protein half-life in vivo” value by setting is: under setting [6], 4.53 ± 0.38 h; under setting [7], 6.76 ± 0.27 h; under setting [8], 2.81 h; under setting [12], 4.38 h; under setting [9], 3.65 h; under setting [10], 7.61 h.

Turning to “MSDQFDAKAFLKTVTSQPGVYRMYDAGGTVIYVGKAKDLKKRLSSYFRSNLASRKTEALVAQIQQIDVTVTHTETEALLLEHNYIKLYQPRYNVLLRDDKSYPFIFLSGDTHPRLAMHRGAKHAKGEYFGPFPNGYAVRETLALLQKIFPIRQCENSVYRNRSRPCLQYQIGRCLGPCVEGLVSEEEYAQQVEYVRLFLSGKDDQVLTQLISRMETASQNLEFEEAARIRDQIQAVRRVTEKQFVSNTGDDLDVIGVAFDAGMACVHVLFIRQGKVLGSRSYFPKVPGGTELSEVVETFVGQFYLQGSQMRTLPGEILLDFNLSDKTLLADSLSELAGRKINVQTKPRGDRARYLKLARTNAATALTSKLSQQSTVHQRLTALASVLKLPEVKRMECFDISHTMGEQTVASCVVFDANGPLRAEYRRYNITGITPGDDYAAMNQVLRRRYGKAIDDSKIPDVILIDGGKGQLAQAKNVFAELDVSWDKNHPLLLGVAKGADRKAGLETLFFEPEGEGFSLPPDSPALHVIQHIRDESHDHAIGGHRKKRAKVKNTSSLETIEGVGPKRRQMLLKYMGGLQGLRNASVEEIAKVPGISQGLAEKIFWSLKH [P0A8G0]”, the “total protein half-life in vivo” value is 6.54 ± 0.81 h under setting [1]; 5.14 ± 0.15 h under setting [2]; 4.77 ± 0.12 h under setting [3]; 6.421 ± 0.061 h under setting [11]; 4.75 ± 0.15 h under setting [4]; 2.84 ± 0.067 h under setting [5]. The “total protein half-life in vivo” value by setting is: under setting [6], 5.1 ± 0.39 h; under setting [7], 7.83 ± 0.25 h; under setting [8], 4.84 ± 0.28 h; under setting [12], 8.62 ± 0.12 h; under setting [9], 4.61 ± 0.15 h; under setting [10], 8.48 ± 0.19 h.
